Source: patent publication US20120027774A1 (DYAX, published 2012)

Tests used:
human MMP-9 = human MMP-9 (human, UniProt P14780 107-707, limits assumed); assay: cell-based or functional assay
[1] = target: T1, Human MMP-9 catalytic domain (BIOMOL, SE-244) (human, UniProt P14780 107-445, limits assumed); assay: cell-based or functional assay
[2] = target: T1, Human MMP-9 catalytic domain (BIOMOL, …); assay: cell-based or functional assay; remark: listed apart in the source
[3] = target: T1, Human MMP-9 catalytic domain (BIOMOL, …); assay: cell-based or functional assay; remark: listed apart in the source
[4] = target: T1, Human MMP-9 catalytic domain (BIOMOL, …); assay: cell-based or functional assay; remark: listed apart in the source
[5] = target: T1, Human MMP-9 catalytic domain (BIOMOL, …); assay: enzyme inhibition, competitive model; intercept of IC50 against substrate concentration (3 to 15 µM), 0.6 nM enzyme
Procedure: Experiments were performed to characterize the interaction of the M0166-F10 hIgG1 with human MMP-9. The Ki was measured and the inhibition mechanism was determined.
Materials: [0427] Substrate: Mca-KPLGL-Dap(Dnp)-AR-NH₂ (M-2350) from BACHEM (521575). A 10 mM stock solution was prepared in DMSO. [0428] Human MMP-9 catalytic domain (BIOMOL, SE-244), stock solution at 0.24 mg/ml. [0429] M0166-F10 hIgG1: 2551-095. Dialysed against TCN. Stock solution at 0.226 mg/ml. [0430] Experiments were performed in TCNB: 50 mM Tris/HCl, 10 mM CaCl₂, 150 mM NaCl, 0.05% Brij 35, pH 7.5. [0431] 96-well black plates from Perkin Elmer (6005270). [0432] Spectramax M2e to measure fluorescence emission of the substrate upon hydrolysis (temperature control set at 30° C.; λexc=328 nm and λₑₘ=393 nm).
Procedure: [0434] 90 μl of the enzyme (final concentration=0.6 nM) was preincubated with 90 μl of various concentrations (0-100 nM final) of M0166-F10 for 1.5 h at 30° C. 20 μl the substrate was then added to a final concentration ranging from 3 to 15 μM, and initial rates were recorded. [0435] Each data point was measured in triplicate, and initial rates were averaged. […] Averaged initial rates were plotted against the M0166-F10 concentration for each substrate concentration, and IC₅₀'s were calculated using the following equation: […]

human MMP-1 = target: T2, human MMP-1 (human, UniProt P03956 100-269, limits assumed); assay: cell-based or functional assay
T2 sequence (looked up): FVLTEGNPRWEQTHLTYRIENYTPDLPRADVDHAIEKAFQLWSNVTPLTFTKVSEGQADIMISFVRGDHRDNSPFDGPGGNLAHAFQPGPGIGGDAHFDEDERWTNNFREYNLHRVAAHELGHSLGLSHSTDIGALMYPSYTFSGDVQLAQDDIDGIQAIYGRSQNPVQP

human MMP-2 = human MMP-2 (human, UniProt P08253 110-452, limits assumed); assay: cell-based or functional assay
human MMP-2, sequence (P08253 110-452 limits assumed): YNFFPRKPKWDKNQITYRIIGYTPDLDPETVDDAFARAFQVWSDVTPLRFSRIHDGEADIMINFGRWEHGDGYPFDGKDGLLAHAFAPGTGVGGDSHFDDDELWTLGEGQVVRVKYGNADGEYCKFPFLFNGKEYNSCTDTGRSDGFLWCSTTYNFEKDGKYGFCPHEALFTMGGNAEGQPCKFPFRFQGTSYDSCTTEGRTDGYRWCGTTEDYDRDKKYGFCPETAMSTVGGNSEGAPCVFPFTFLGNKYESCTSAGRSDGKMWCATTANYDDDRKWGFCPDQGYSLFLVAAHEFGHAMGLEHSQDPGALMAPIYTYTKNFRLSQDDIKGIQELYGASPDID

human MMP-3 = human MMP-3 (human, UniProt P08254 100-272, limits assumed); assay: cell-based or functional assay
human MMP-3, sequence (P08254 100-272 limits assumed): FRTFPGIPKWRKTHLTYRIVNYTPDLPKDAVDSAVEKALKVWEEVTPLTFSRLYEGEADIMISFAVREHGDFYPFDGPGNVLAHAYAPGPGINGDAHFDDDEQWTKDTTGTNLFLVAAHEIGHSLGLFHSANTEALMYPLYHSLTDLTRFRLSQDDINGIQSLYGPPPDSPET

human MMP-7 = target: T3, human MMP-7 (human, UniProt P09237 95-267); assay: cell-based or functional assay
T3 sequence (looked up): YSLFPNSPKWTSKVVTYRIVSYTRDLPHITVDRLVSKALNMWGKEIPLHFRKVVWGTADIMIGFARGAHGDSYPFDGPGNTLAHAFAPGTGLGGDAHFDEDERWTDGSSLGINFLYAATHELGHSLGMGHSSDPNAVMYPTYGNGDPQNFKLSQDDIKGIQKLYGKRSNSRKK

human MMP-8 = human MMP-8 (human, UniProt P22894 100-262, limits assumed); assay: cell-based or functional assay
human MMP-8, sequence (P22894 100-262 limits assumed): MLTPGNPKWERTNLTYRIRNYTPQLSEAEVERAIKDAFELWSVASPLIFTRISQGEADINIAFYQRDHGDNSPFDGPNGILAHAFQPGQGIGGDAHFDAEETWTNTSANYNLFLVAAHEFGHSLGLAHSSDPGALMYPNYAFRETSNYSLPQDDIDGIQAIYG

human MMP-10 = human MMP-10 (human, UniProt P09238 99-271, limits assumed); assay: cell-based or functional assay
human MMP-10, sequence (P09238 99-271 limits assumed): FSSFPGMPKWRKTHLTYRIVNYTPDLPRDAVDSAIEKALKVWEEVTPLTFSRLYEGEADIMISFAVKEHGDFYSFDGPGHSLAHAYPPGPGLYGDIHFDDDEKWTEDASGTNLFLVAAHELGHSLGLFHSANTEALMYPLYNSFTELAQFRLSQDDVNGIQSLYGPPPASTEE

mouse MMP-9 = mouse MMP-9 (mouse, UniProt P41245 20-730, limits assumed); assay: cell-based or functional assay
mouse MMP-9, sequence (P41245 20-730 limits assumed): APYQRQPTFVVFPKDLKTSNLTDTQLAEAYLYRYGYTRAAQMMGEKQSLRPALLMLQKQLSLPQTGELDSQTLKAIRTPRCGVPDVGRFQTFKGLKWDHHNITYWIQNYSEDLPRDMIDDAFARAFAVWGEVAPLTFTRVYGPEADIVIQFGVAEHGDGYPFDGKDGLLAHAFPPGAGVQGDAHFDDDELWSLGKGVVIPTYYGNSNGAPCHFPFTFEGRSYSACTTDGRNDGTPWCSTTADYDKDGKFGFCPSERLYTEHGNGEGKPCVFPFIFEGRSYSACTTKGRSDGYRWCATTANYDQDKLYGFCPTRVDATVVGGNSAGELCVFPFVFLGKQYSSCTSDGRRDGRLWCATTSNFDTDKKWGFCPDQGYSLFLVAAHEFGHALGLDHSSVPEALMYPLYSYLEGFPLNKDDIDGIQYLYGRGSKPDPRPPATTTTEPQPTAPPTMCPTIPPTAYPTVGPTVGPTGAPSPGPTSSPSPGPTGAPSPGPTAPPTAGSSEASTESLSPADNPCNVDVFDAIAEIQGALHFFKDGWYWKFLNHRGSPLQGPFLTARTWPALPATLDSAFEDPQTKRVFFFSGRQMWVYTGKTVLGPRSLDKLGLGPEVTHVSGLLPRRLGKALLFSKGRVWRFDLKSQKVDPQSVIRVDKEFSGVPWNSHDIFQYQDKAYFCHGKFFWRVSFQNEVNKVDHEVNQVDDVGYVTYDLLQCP

human MMP-12 = human MMP-12 (human, UniProt P39900 106-268, limits assumed); assay: cell-based or functional assay
human MMP-12, sequence (P39900 106-268 limits assumed): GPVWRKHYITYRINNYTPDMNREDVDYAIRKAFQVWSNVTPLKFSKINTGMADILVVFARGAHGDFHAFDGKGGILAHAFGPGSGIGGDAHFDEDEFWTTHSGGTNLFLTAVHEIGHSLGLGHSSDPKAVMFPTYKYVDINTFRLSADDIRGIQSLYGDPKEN

human MMP-13 = human MMP-13 (human, UniProt P45452 104-274); assay: cell-based or functional assay
human MMP-14 = human MMP-14 (human, UniProt P50281 112-284, limits assumed); assay: cell-based or functional assay
mouse MMP-2 = mouse MMP-2 (mouse, UniProt P33434 30-662, limits assumed); assay: cell-based or functional assay
mouse MMP-2, sequence (P33434 30-662 limits assumed): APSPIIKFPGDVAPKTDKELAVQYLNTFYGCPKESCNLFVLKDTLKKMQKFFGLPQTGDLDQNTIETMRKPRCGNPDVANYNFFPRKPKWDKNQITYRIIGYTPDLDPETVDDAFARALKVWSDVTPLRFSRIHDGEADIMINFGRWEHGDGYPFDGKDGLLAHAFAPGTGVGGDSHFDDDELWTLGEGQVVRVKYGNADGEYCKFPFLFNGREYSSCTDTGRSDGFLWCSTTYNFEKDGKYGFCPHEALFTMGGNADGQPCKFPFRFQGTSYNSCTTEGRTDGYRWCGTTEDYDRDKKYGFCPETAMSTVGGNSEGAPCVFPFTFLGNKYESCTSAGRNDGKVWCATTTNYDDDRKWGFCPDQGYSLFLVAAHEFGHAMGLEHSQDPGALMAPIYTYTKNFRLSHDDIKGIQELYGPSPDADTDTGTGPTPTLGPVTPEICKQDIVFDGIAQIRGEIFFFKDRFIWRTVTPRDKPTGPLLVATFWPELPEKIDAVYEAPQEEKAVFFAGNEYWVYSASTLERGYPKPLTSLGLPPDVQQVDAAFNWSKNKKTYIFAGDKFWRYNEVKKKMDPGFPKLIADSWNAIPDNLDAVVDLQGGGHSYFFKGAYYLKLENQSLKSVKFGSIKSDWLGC

T1 sequence (P14780 107-445 limits assumed): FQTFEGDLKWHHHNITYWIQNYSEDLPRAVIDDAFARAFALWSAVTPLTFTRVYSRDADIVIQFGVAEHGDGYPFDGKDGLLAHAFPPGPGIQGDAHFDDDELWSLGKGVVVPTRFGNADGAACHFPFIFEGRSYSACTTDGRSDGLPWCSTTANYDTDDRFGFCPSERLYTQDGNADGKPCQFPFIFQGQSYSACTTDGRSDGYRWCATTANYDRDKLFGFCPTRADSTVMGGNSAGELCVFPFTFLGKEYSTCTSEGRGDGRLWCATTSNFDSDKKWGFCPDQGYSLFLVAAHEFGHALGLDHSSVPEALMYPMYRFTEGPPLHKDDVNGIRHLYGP
human MMP-9, sequence (P14780 107-707 limits assumed): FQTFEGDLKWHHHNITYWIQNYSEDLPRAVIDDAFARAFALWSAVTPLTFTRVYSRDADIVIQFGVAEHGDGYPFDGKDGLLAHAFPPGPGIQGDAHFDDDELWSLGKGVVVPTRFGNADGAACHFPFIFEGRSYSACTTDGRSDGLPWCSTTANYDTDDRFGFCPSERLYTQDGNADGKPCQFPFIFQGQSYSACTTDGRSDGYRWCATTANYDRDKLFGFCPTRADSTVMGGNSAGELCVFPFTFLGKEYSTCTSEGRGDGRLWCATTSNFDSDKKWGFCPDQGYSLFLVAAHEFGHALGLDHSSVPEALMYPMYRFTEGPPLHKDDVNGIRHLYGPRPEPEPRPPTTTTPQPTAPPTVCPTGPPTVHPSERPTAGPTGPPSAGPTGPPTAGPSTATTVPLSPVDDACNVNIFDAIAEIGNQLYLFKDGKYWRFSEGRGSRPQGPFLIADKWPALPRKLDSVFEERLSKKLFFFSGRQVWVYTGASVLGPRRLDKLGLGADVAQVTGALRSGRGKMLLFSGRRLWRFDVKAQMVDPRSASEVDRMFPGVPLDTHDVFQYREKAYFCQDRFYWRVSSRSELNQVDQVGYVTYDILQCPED

B1: 539A-M0166-F10 (format not stated: Fab or hIgG-1) (antibody, V domains shown)
VH: EVQLLESGGGLVQPGGSLRLSCAASGFTFSPYLMNWVRQAPGKGLEWVSSIYSSGGGTGYADSVKGRFTISRDNSKNTLYLQMNSLRAEDTAVYYCARIYHSSSGPFYGMDVWGQGTTVTVSS
VL: AQSELTQPPSASAAPGQRVTISCSGSSSNIGSNTVTWYQKLPGTAPKLLIYNNYERPSGVPARFSGSKSGTSASLAISGLQSEDEADYYCATWDDSLIANYVFGSGTKVTVLG
**Q.** For B1, which “IC50, inhibition of MMP-9 activity” value (human MMP-9) is on record?
**A.** The value was 1.8 nM.

B2: 539A-M0166-F10 hIgG1 (antibody, V domains shown)
VH: B1 VH
VL: QSELTQPPSASAAPGQRVTISCSGSSSNIGSNTVTWYQKLPGTAPKLLIYNNYERPSGVPARFSGSKSGTSASLAISGLQSEDEADYYCATWDDSLIANYVFGSGTKVTVLG
notes: Human IgG1; also called DL15
**Q.** For B2, which “IC50 on human MMP-9 activity (fluorogenic substrate, 10 µM)” value [1] is on record?
**A.** The value was 4.3 nM.

**Q.** And the “a (intercept) of the linear fit of IC50 (nM) against M-2350 substrate concentration (µM); unit taken from the IC50 axis” value [2]?
**A.** The value was 0.586 nM.

**Q.** And the “b (gradient) of the linear fit of IC50 (nM) against M-2350 substrate concentration (µM); unit not given” value [2]?
**A.** The value was 0.39.

**Q.** What about the “IC50 (inhibition of enzyme activity, 3 µM substrate M-2350, 0.6 nM enzyme); unit from the concentration axis [panel 3µM]” value [3] of the same binder?
**A.** Its value is 2.16 nM.

**Q.** What about the “IC50 (inhibition of enzyme activity, 5 µM substrate M-2350, 0.6 nM enzyme); unit from the concentration axis [panel 5µM]” value [3] of the same binder?
**A.** The value was 2.45 nM.

**Q.** And the “IC50 (inhibition of enzyme activity, 7.5 µM substrate M-2350, 0.6 nM enzyme); unit from the concentration axis [panel 7.5µM]” value [3]?
**A.** The value was 4.22 nM.

**Q.** And the “IC50 (inhibition of enzyme activity, 10 µM substrate M-2350, 0.6 nM enzyme); unit from the concentration axis [panel 10µM]” value [3]?
**A.** Its value is 3.99 nM.

**Q.** And the “IC50 (inhibition of enzyme activity, 12.5 µM substrate M-2350, 0.6 nM enzyme) [panel 12.5µM]” value [3]?
**A.** The value was 5.35 nM.

**Q.** What about the “IC50 (inhibition of enzyme activity, 15 µM substrate M-2350, 0.6 nM enzyme); unit from the concentration axis [panel 15µM]” value [3] of the same binder?
**A.** Its value is 7.06 nM.

**Q.** What about the “residual enzyme activity in the presence of 1 µM antibody, 10 µM fluorogenic peptide substrate (unit not given)” value (“residual enzyme activity … (unit not given)” below) [4] of the same binder?
**A.** The value was 4.

**Q.** What about the Ki [5] of the same binder?
**A.** The Ki was 0.3 nM.

B3: 539A-M0166-F10 Fab (Fab, V domains shown)
VH: B1 VH
VL: B1 VL
**Q.** For B3, which “IC50 on human MMP-9 activity (fluorogenic substrate, 10 µM)” value [1] is on record?
**A.** The value was ~33 nM.

**Q.** What about the “residual enzyme activity … (unit not given)” value [4] of the same binder?
**A.** The value was 8.

**Q.** What about the “residual enzyme activity … (unit not given)” value (human MMP-1) of the same binder?
**A.** Its value is 104.

**Q.** And the “residual enzyme activity … (unit not given)” value (human MMP-2)?
**A.** Its value is 126.

**Q.** What about the “residual enzyme activity … (unit not given)” value (human MMP-3) of the same binder?
**A.** The value was 82.

**Q.** What about the “residual enzyme activity … (unit not given)” value (human MMP-7) of the same binder?
**A.** The value was 93.

**Q.** And the “residual enzyme activity … (unit not given)” value (human MMP-8)?
**A.** The value was 100.

**Q.** And the “residual enzyme activity … (unit not given)” value (human MMP-10)?
**A.** The value was 102.

**Q.** And the “residual enzyme activity … (unit not given)” value (mouse MMP-9)?
**A.** Its value is 94.

**Q.** And the “residual enzyme activity … (unit not given)” value (human MMP-12)?
**A.** The value was 90.

**Q.** What about the “residual enzyme activity … (unit not given)” value (human MMP-13) of the same binder?
**A.** The value was 106.

**Q.** And the “residual enzyme activity … (unit not given)” value (human MMP-14)?
**A.** The value was 115.

**Q.** And the “residual enzyme activity … (unit not given)” value (mouse MMP-2)?
**A.** The value was 113.
